125 sequences from the supplement of paper PMC9112550, “Optimization of the antimicrobial peptide Bac7 by deep mutational scanning” (BMC Biology, 2022) can be followed below.
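Further: peptides expressed intracellularly from a pBAD plasmid library in pooled LB shake-flask culture, induced with 0.3% L-arabinose, DNA abundance read by NGS, three biological replicates, DESeq2 with apeglm shrinkage.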

For this series, the system named is Escherichia coli TOP10. Description: shrunken log2 fold change of peptide-encoding DNA abundance (4.5 h post-induction vs induction); higher = less antimicrobial activity (less host growth inhibition). To be noted: time post-induction: 4.5 h; library: site-saturation at positions 5, 18, 19, 20.
Regarding RRIRTRPPRLPRPRPRPQRFPRP, the “shrunken log2 fold change” value was 0.00548. Under RRIRNRPPRLPRPRPRPQMTPRP stands -0.661.

As to RRIRGRPPRLPRPRPRPSINPRP, the “shrunken log2 fold change” value was -0.0752. With RRIRKRPPRLPRPRPRPKTDPRP the figure was 0.343. With RRIRHRPPRLPRPRPRPMCRPRP the figure was -0.0487. Under RRIRHRPPRLPRPRPRPNHMPRP stands 0.124; under RRIRRRPPRLPRPRPRPSGCPRP, 0.212. Turning to RRIRARPPRLPRPRPRPKFDPRP, the “shrunken log2 fold change” value was 0.376. Turning to RRIRLRPPRLPRPRPRPRGEPRP, the “shrunken log2 fold change” value came to 0.207. With RRIRIRPPRLPRPRPRPFCEPRP, the “shrunken log2 fold change” value was -0.23. With RRIRCRPPRLPRPRPRPYMTPRP the figure was -1.06. Under RRIRARPPRLPRPRPRPDAEPRP stands 1.63.

For the sequence RRIRGRPPRLPRPRPRPQRYPRP, the “shrunken log2 fold change” value was -0.00818.

For RRIRPRPPRLPRPRPRPEEVPRP, the “shrunken log2 fold change” value amounted to 0.0532. Take RRIRKRPPRLPRPRPRPDCMPRP: the “shrunken log2 fold change” value is -0.0185. For RRIRKRPPRLPRPRPRPRPCPRP, the “shrunken log2 fold change” value amounted to 0.365.

In the case of RRIRHRPPRLPRPRPRPQASPRP, the “shrunken log2 fold change” value was determined as 0.0479.

As for RRIRPRPPRLPRPRPRPYKYPRP, the “shrunken log2 fold change” value is -1.13. For the sequence RRIRTRPPRLPRPRPRPWCMPRP, the “shrunken log2 fold change” value was -0.0742. Under RRIRLRPPRLPRPRPRPMHHPRP stands 0.0581; under RRIRTRPPRLPRPRPRPFPAPRP, 0.299.

Take RRIRHRPPRLPRPRPRPHCRPRP: the “shrunken log2 fold change” value worked out at 0.0364. With RRIRGRPPRLPRPRPRPHSPPRP the figure was 0.289; with RRIRTRPPRLPRPRPRPHQAPRP, -0.00677; with RRIRRRPPRLPRPRPRPWLLPRP, 0.0822. As for RRIRWRPPRLPRPRPRPCLNPRP, the “shrunken log2 fold change” value came to 0.0137. Under RRIRGRPPRLPRPRPRPFWPPRP stands 0.653; under RRIRPRPPRLPRPRPRPQENPRP, -0.125. Under RRIRPRPPRLPRPRPRPCNTPRP stands -0.333; under RRIRNRPPRLPRPRPRPHCMPRP, -0.251; under RRIRQRPPRLPRPRPRPQGPPRP, 0.189. Under RRIRVRPPRLPRPRPRPQQFPRP stands 0.0811. RRIRLRPPRLPRPRPRPRTDPRP: the “shrunken log2 fold change” value was -0.0417.

Consider RRIRARPPRLPRPRPRPWNGPRP, for which the “shrunken log2 fold change” value was 0.0566. Under RRIRYRPPRLPRPRPRPQNSPRP stands -0.00968; under RRIRSRPPRLPRPRPRPICDPRP, 0.228.

Take RRIRPRPPRLPRPRPRPYCLPRP: the “shrunken log2 fold change” value is -0.115. As for RRIRPRPPRLPRPRPRPITYPRP, the “shrunken log2 fold change” value is -0.782. Under RRIRVRPPRLPRPRPRPNVLPRP stands 0.0178. Take RRIRLRPPRLPRPRPRPHIHPRP: the “shrunken log2 fold change” value is -0.29. With RRIRYRPPRLPRPRPRPDADPRP the figure was 0.00911; with RRIRKRPPRLPRPRPRPDNPPRP, -0.0237. Under RRIRTRPPRLPRPRPRPKVHPRP stands -0.429; under RRIRVRPPRLPRPRPRPAVVPRP, 0.213; under RRIRWRPPRLPRPRPRPPIDPRP, 0.1. Under RRIRWRPPRLPRPRPRPHCHPRP stands -0.254. Take RRIRGRPPRLPRPRPRPDMSPRP: the “shrunken log2 fold change” value was 0.0457. Under RRIRVRPPRLPRPRPRPNTTPRP stands -0.227; under RRIRRRPPRLPRPRPRPFSTPRP, -0.0277. Take RRIRARPPRLPRPRPRPVFTPRP: the “shrunken log2 fold change” value is -0.0343. With RRIRYRPPRLPRPRPRPKSAPRP the figure was 0.0745; with RRIRYRPPRLPRPRPRPRGGPRP, 0.139; with RRIRKRPPRLPRPRPRPCIIPRP, -0.108.

With RRIRTRPPRLPRPRPRPEFKPRP, the “shrunken log2 fold change” value worked out at 0.0563. For RRIRQRPPRLPRPRPRPFQEPRP, the “shrunken log2 fold change” value is -0.0113. Under RRIRRRPPRLPRPRPRPMFPPRP stands 0.118; under RRIRPRPPRLPRPRPRPQCLPRP, 0.0368.

For the sequence RRIRLRPPRLPRPRPRPSSRPRP, the “shrunken log2 fold change” value was -0.425. Take RRIRKRPPRLPRPRPRPLRAPRP: the “shrunken log2 fold change” value worked out at 1.23. Take RRIRGRPPRLPRPRPRPQPHPRP: the “shrunken log2 fold change” value worked out at 0.582.

For the sequence RRIRKRPPRLPRPRPRPGWLPRP, the “shrunken log2 fold change” value amounted to 0.593.

Regarding RRIRFRPPRLPRPRPRPPWIPRP, the “shrunken log2 fold change” value turned out to be 0.3. Under RRIRLRPPRLPRPRPRPSIPPRP stands -0.711. With RRIRQRPPRLPRPRPRPRDPPRP the figure was 0.604. With RRIRRRPPRLPRPRPRPHVHPRP the figure was 0.0274. Turning to RRIRPRPPRLPRPRPRPRPDPRP, the “shrunken log2 fold change” value was 0.45.

For the sequence RRIRCRPPRLPRPRPRPIDDPRP, the “shrunken log2 fold change” value is -0.0196. With RRIRFRPPRLPRPRPRPTFDPRP the figure was -0.138; with RRIRQRPPRLPRPRPRPVELPRP, 4.07e-05. With RRIRERPPRLPRPRPRPKSGPRP the figure was -0.136. With RRIRWRPPRLPRPRPRPMCQPRP the figure was 0.132. With RRIRMRPPRLPRPRPRPYLVPRP, the “shrunken log2 fold change” value was -0.016. Under RRIRHRPPRLPRPRPRPIAFPRP stands -0.362; under RRIRQRPPRLPRPRPRPEGMPRP, 0.13; under RRIRNRPPRLPRPRPRPMDFPRP, -0.12. Under RRIRSRPPRLPRPRPRPYKTPRP stands -0.0144; under RRIRARPPRLPRPRPRPNHRPRP, 0.00751. With RRIRNRPPRLPRPRPRPVKHPRP the figure was -0.23; with RRIRIRPPRLPRPRPRPGQFPRP, -0.0255; with RRIRARPPRLPRPRPRPAGWPRP, 1.56.

Take RRIRCRPPRLPRPRPRPIKEPRP: the “shrunken log2 fold change” value was -0.0741. Under RRIRLRPPRLPRPRPRPSLVPRP stands -0.0388; under RRIRFRPPRLPRPRPRPDEMPRP, -0.0134. With RRIRCRPPRLPRPRPRPTLVPRP the figure was 0.12. On to RRIRGRPPRLPRPRPRPWTFPRP, for which the “shrunken log2 fold change” value is -0.00633.

As for RRIRERPPRLPRPRPRPWYWPRP, the “shrunken log2 fold change” value stood at 0.0516. With RRIRQRPPRLPRPRPRPLLIPRP the figure was -0.141; with RRIRQRPPRLPRPRPRPTSEPRP, 0.015; with RRIRRRPPRLPRPRPRPQRGPRP, 0.399. With RRIRNRPPRLPRPRPRPGGTPRP the figure was 0.154; with RRIRNRPPRLPRPRPRPKHKPRP, -0.0428. With RRIRNRPPRLPRPRPRPCEIPRP the figure was 0.0361; with RRIRSRPPRLPRPRPRPIKHPRP, -0.0703. On to RRIRVRPPRLPRPRPRPIFHPRP, for which the “shrunken log2 fold change” value was -0.0258. With RRIRVRPPRLPRPRPRPIYIPRP the figure was -0.755.

Take RRIRSRPPRLPRPRPRPESPPRP: the “shrunken log2 fold change” value is 0.32. With RRIRDRPPRLPRPRPRPWGFPRP the figure was 0.13. With RRIRIRPPRLPRPRPRPNEVPRP the figure was -0.346; with RRIRWRPPRLPRPRPRPNQIPRP, -0.189.

As to RRIRCRPPRLPRPRPRPCVYPRP, the “shrunken log2 fold change” value is -0.411. Under RRIRMRPPRLPRPRPRPPCWPRP stands 0.162. With RRIRIRPPRLPRPRPRPSMIPRP the figure was -0.458. With RRIRHRPPRLPRPRPRPNCLPRP the figure was -0.0125. Take RRIRNRPPRLPRPRPRPSYDPRP: the “shrunken log2 fold change” value was -0.452. Consider RRIRERPPRLPRPRPRPRLPPRP, for which the “shrunken log2 fold change” value was found to be 0.35. Under RRIRMRPPRLPRPRPRPEDGPRP stands 2.85; under RRIRKRPPRLPRPRPRPNAQPRP, 0.842; under RRIRNRPPRLPRPRPRPGHRPRP, 0.00909. With RRIRERPPRLPRPRPRPCADPRP the figure was 0.0245; with RRIRTRPPRLPRPRPRPHVMPRP, -0.0914.

Take RRIRERPPRLPRPRPRPMVRPRP: the “shrunken log2 fold change” value is -0.019. With RRIRERPPRLPRPRPRPMKFPRP the figure was -0.0657. With RRIRERPPRLPRPRPRPTVTPRP the figure was 0.0913; with RRIRKRPPRLPRPRPRPMPFPRP, 0.0304; with RRIRCRPPRLPRPRPRPFNQPRP, -0.421. Regarding RRIRDRPPRLPRPRPRPSYCPRP, the “shrunken log2 fold change” value was -0.046.

RRIRRRPPRLPRPRPRPIDHPRP: the “shrunken log2 fold change” value is -0.12. In the case of RRIRCRPPRLPRPRPRPNTIPRP, the “shrunken log2 fold change” value is -0.553. Regarding RRIRKRPPRLPRPRPRPRMYPRP, the “shrunken log2 fold change” value stood at 0.155. With RRIRLRPPRLPRPRPRPYTEPRP the figure was -0.284; with RRIRVRPPRLPRPRPRPHVYPRP, -0.13. With RRIRQRPPRLPRPRPRPNYFPRP the figure was -0.149; with RRIRVRPPRLPRPRPRPRGCPRP, 0.374.

For RRIRRRPPRLPRPRPRPLCVPRP, the “shrunken log2 fold change” value stood at 0.537.

Turning to RRIRYRPPRLPRPRPRPANGPRP, the “shrunken log2 fold change” value is -0.6.
